Measurements taken from article PMC7316485, “Secretion of Recombinant Interleukin-22 by Engineered Lactobacillus reuteri Reduces Fatty Liver Disease in a Mouse Model of Diet-Induced Obesity” (mSphere, 2020).

B1: murine interleukin-22 with C-terminal 3x FLAG tag, without signal peptide (IL-22:3X FLAG, pVPL31125) (natural protein, mouse, UniProt Q9JJY9 34-179, looked up)
chain: LPVNTRCKLEVSNFQQPYIVNRTFMLAKEASLADNNTDVRLIGEKLFRGVSAKDQCYLMKQVLNFTLEDVLLPQSDRFQPYMQEVVPFLTKLSNQLSSCHISGDDQNIQKNVRRLKETVKKLGESGEIKAIGELDLLFMSLRNACV
notes: also called mIL-22; source: L. reuteri VPL31125 (accumulates mIL-22 intracellularly), total lysate; not shown: 3x FLAG, C-terminal, kept
B2: murine interleukin-22 with C-terminal 3x FLAG tag, cleaved from the fusion with a Lactobacillus reuteri signal peptide (SP:IL-22:3X FLAG, pVPL3776) (natural protein, mouse, UniProt Q9JJY9 34-179, looked up)
chain: B1 chain
notes: the rest kept the signal peptide; also called mIL-22; mature mIL-22; source: L. reuteri VPL3778 (engineered to secrete mIL-22), protein precipitated from culture supernatant; not shown: 3x FLAG, C-terminal, kept

Target: the molecule itself
Assay: migration on a gel, Western blot; FLAG-tagged mIL-22 from L. reuteri grown in LDM3 at 37°C to OD600 3.5; total lysate (VPL31125) or protein precipitated from culture supernatant (VPL3778); samples prepared as in ref. 14; gel conditions not told

Protein | stoichiometry N
B1 | 4
B2 | 4
